Reference: the supplement of paper PMC7877785
± gives the uncertainty stated by the source.

Assay: self-splicing fitness, log relative to wild type (ln ratio); higher = more splicing; Tetrahymena group I intron in knt gene, E. coli kanamycin selection, DiMSum; sequences stand for … in CUCUCU…GGAGGGAAAAGUUAUCAGGCAUGCACCUGGUAGCUAGUCUUUAAACCAAUAGAUUGCAUCGGUUUAAAAGGCAAGACCGUCAAAUUGCGGGAAAGGGGUCAACAGCCGUUCAGUACCAAGUCUCAGGGGAAACUUUGAGAUGGCCUUGCAAAGGGUAUGGUAAUAAGCUGACGGACAUGGUCCUAACCACGCAGCCAAGUCCUAAGUCAACAGAUCUUCUGUUGAUAUGGAUGCAGUUCACAGACUAAAUGUCGGUCGGGGAAGAUGUAUUCUUCUCAUAAGAUAUAGUCGGACCUCUCCUUAAUGGGAGCUAGCGGAUGAAGUGAUGCAACACUGGAGCCGCUGGGAACUAAUUUGUAUGCGAAAGUAUAUUGAUUAGUUUUGGAGUACUCGUGGUCG
How it was run: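 Colonies from six replicate transformations of E. coli BL21(DE3) were pooled and amplicon-sequenced on an Illumina HiSeq 2500. The library placed an intron with all eight P1ex-region nucleotides randomised inside the knt kanamycin-resistance gene on pET-22b(+), and cells grew overnight at 37°C or 30°C on LB agar with or without 25 μg/mL kanamycin (plus 100 μg/mL carbenicillin, 50 μM IPTG, 0.2% rhamnose). Fitness is the DiMSum error-weighted combination of wild-type-normalised replicate fold changes, kanamycin versus none.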

In the case of GGCAAGCAAUAUUACGCUAG, the “self-splicing fitness (ln)” value (30 °C) is reported as -3.39 ± 0.24 and the “self-splicing fitness (ln)” value (37 °C) is reported as -2.83 ± 0.37.
In the case of AGCGAGCAAUAUUACGCACC, the “self-splicing fitness (ln)” value (30 °C) is reported as -0.941 ± 0.45 and the “self-splicing fitness (ln)” value (37 °C) is reported as -0.411 ± 0.37.
In the case of GGUAAGCAAUAUUACGAGUU, the “self-splicing fitness (ln)” value (30 °C) is reported as -1.56 ± 0.097 and the “self-splicing fitness (ln)” value (37 °C) is reported as -0.413 ± 0.12.
With GGUUAGCAAUAUUACGUGCA the “self-splicing fitness (ln)” value (30 °C) was -0.869 ± 0.19 and the “self-splicing fitness (ln)” value (37 °C) was -0.121 ± 0.18.
For ACCUAGCAAUAUUACGGAUU, the “self-splicing fitness (ln)” value (30 °C) was -1.23 ± 0.072 and the “self-splicing fitness (ln)” value (37 °C) was 0.134 ± 0.088.
For AUCCAGCAAUAUUACGUAAG, the “self-splicing fitness (ln)” value (30 °C) was -1.59 ± 0.065 and the “self-splicing fitness (ln)” value (37 °C) was -0.715 ± 0.087.
For GUUAAGCAAUAUUACGGCGG, the “self-splicing fitness (ln)” value (30 °C) was -2.8 ± 0.21 and the “self-splicing fitness (ln)” value (37 °C) was -2.29 ± 0.33.
For AAGCAGCAAUAUUACGCUAG, the “self-splicing fitness (ln)” value (30 °C) was -2.56 ± 0.12 and the “self-splicing fitness (ln)” value (37 °C) was -2.84 ± 0.14.
For UAUAAGCAAUAUUACGUGGA, the “self-splicing fitness (ln)” value (30 °C) was -2.08 ± 0.19 and the “self-splicing fitness (ln)” value (37 °C) was -1.71 ± 0.19.
In the case of UAAGAGCAAUAUUACGCAGA, the “self-splicing fitness (ln)” value (30 °C) is reported as -2.62 ± 0.18 and the “self-splicing fitness (ln)” value (37 °C) is reported as -2.24 ± 0.23.
For UCAGAGCAAUAUUACGUUGA, the “self-splicing fitness (ln)” value (30 °C) was -2.33 ± 0.12 and the “self-splicing fitness (ln)” value (37 °C) was -1.54 ± 0.14.
With CUGCAGCAAUAUUACGCGAC the “self-splicing fitness (ln)” value (30 °C) was -2.19 ± 0.14 and the “self-splicing fitness (ln)” value (37 °C) was -0.91 ± 0.12.
With CGUGAGCAAUAUUACGACUG the “self-splicing fitness (ln)” value (30 °C) was -0.73 ± 0.12 and the “self-splicing fitness (ln)” value (37 °C) was -0.0318 ± 0.16.
In the case of UCUCAGCAAUAUUACGCAUC, the “self-splicing fitness (ln)” value (30 °C) is reported as -3.51 ± 0.21 and the “self-splicing fitness (ln)” value (37 °C) is reported as -2.32 ± 0.2.
For UGCGAGCAAUAUUACGUCUG, the “self-splicing fitness (ln)” value (30 °C) was -1.24 ± 0.1 and the “self-splicing fitness (ln)” value (37 °C) was -1.36 ± 0.13.
With CGAGAGCAAUAUUACGCGAG the “self-splicing fitness (ln)” value (30 °C) was -2.82 ± 0.19 and the “self-splicing fitness (ln)” value (37 °C) was -1.88 ± 0.22.
For AGUAAGCAAUAUUACGUAUC, the “self-splicing fitness (ln)” value (30 °C) was -3.99 ± 0.33 and the “self-splicing fitness (ln)” value (37 °C) was -0.681 ± 0.23.
In the case of UGAGAGCAAUAUUACGUCUU, the “self-splicing fitness (ln)” value (30 °C) is reported as -3.18 ± 0.44 and the “self-splicing fitness (ln)” value (37 °C) is reported as -1.9 ± 0.28.
For CCUUAGCAAUAUUACGCACA, the “self-splicing fitness (ln)” value (30 °C) was -1.93 ± 0.28 and the “self-splicing fitness (ln)” value (37 °C) was -1.06 ± 0.21.
In the case of AUCUAGCAAUAUUACGGACA, the “self-splicing fitness (ln)” value (30 °C) is reported as -0.495 ± 0.14 and the “self-splicing fitness (ln)” value (37 °C) is reported as 0.224 ± 0.13.
For UCAUAGCAAUAUUACGCCCA, the “self-splicing fitness (ln)” value (30 °C) was -2 ± 0.21 and the “self-splicing fitness (ln)” value (37 °C) was -0.939 ± 0.18.
For UACAAGCAAUAUUACGAGUG, the “self-splicing fitness (ln)” value (30 °C) was -1.35 ± 0.064 and the “self-splicing fitness (ln)” value (37 °C) was -0.768 ± 0.071.
For CGCCAGCAAUAUUACGGCCU, the “self-splicing fitness (ln)” value (30 °C) was -0.959 ± 0.061 and the “self-splicing fitness (ln)” value (37 °C) was 0.409 ± 0.072.
For GGGCAGCAAUAUUACGCCUG, the “self-splicing fitness (ln)” value (30 °C) was -1.27 ± 0.14 and the “self-splicing fitness (ln)” value (37 °C) was 0.02 ± 0.13.
With AGUAAGCAAUAUUACGCACU the “self-splicing fitness (ln)” value (30 °C) was -3.07 ± 0.29 and the “self-splicing fitness (ln)” value (37 °C) was -1.79 ± 0.29.
For ACAGAGCAAUAUUACGUUUC, the “self-splicing fitness (ln)” value (37 °C) was -2.31 ± 0.39.
For GUCGAGCAAUAUUACGAACG, the “self-splicing fitness (ln)” value (37 °C) was -1.02 ± 0.23.
For GGCAAGCAAUAUUACGGCCC, the “self-splicing fitness (ln)” value (30 °C) was -3.62 ± 0.36 and the “self-splicing fitness (ln)” value (37 °C) was -1.85 ± 0.3.
With UAGUAGCAAUAUUACGCAGC the “self-splicing fitness (ln)” value (30 °C) was -2.96 ± 0.47.
In the case of UUAUAGCAAUAUUACGUAAU, the “self-splicing fitness (ln)” value (30 °C) is reported as -3.23 ± 0.31 and the “self-splicing fitness (ln)” value (37 °C) is reported as -2.11 ± 0.36.
In the case of GGCCAGCAAUAUUACGAUUG, the “self-splicing fitness (ln)” value (30 °C) is reported as -3.73 ± 0.2 and the “self-splicing fitness (ln)” value (37 °C) is reported as -1.74 ± 0.16.
For GCUAAGCAAUAUUACGCGAG, the “self-splicing fitness (ln)” value (30 °C) was -2.6 ± 0.13 and the “self-splicing fitness (ln)” value (37 °C) was -1.18 ± 0.14.
For ACAGAGCAAUAUUACGACGA, the “self-splicing fitness (ln)” value (30 °C) was -0.906 ± 0.43 and the “self-splicing fitness (ln)” value (37 °C) was -1.83 ± 0.38.
For GCUGAGCAAUAUUACGAGCU, the “self-splicing fitness (ln)” value (30 °C) was -3.66 ± 0.34 and the “self-splicing fitness (ln)” value (37 °C) was -1.82 ± 0.22.
For UAUCAGCAAUAUUACGGGAC, the “self-splicing fitness (ln)” value (30 °C) was -3.15 ± 0.22 and the “self-splicing fitness (ln)” value (37 °C) was -2.26 ± 0.25.
For UGCAAGCAAUAUUACGUGCA, the “self-splicing fitness (ln)” value (30 °C) was -3.02 ± 0.21 and the “self-splicing fitness (ln)” value (37 °C) was -3.18 ± 0.35.
With UAUUAGCAAUAUUACGCACG the “self-splicing fitness (ln)” value (30 °C) was -0.859 ± 0.16 and the “self-splicing fitness (ln)” value (37 °C) was 0.0642 ± 0.17.
With UUCGAGCAAUAUUACGUUUG the “self-splicing fitness (ln)” value (30 °C) was -2.94 ± 0.14 and the “self-splicing fitness (ln)” value (37 °C) was -2.99 ± 0.2.
In the case of AUUUAGCAAUAUUACGUGUC, the “self-splicing fitness (ln)” value (30 °C) is reported as -2.55 ± 0.42 and the “self-splicing fitness (ln)” value (37 °C) is reported as -2.87 ± 0.43.
